Laboratory results reported in patent US20240382561A1, “GLUCOREGULATORY COMPOUND, COMPOSITION AND USES THEREOF” (THE HONG KONG POLYTECHNIC UNIVERSITY, priority 2021, published 2024).

Experiments:
[1] = tested on: STZ-induced diabetic male mice; assay: Daily oral CYSTM1 in STZ-induced diabetic mice; assay type: in vivo, mouse; settings: vs saline
Experimental: Turning to FIG. 7J, standard chow diet (STC) mice were injected with streptozotocin (STZ) to induce diabetes for five days and then treated with either CYSTM1 protein (1 mg/kg) or saline daily. The group of mice treated with saline were regarded as the control group.

[2] = tested on: mouse primary adipocytes; assay: 2-NBDG glucose uptake in mouse primary adipocytes; assay type: cell-based; settings: mouse primary adipocytes, CYSTM1 1-1000 nM, 1 h
Experimental: (§1) To determine whether CYSTM1 can increase glucose uptake in adipocytes, in vitro assays of 2-NBDG uptake in response to CYSTM1 treatment and potential inhibitors in 3T3-L1 adipocytes and mouse primary adipocytes were performed. 3T3-L1 preadipocytes were maintained in Dulbecco's modified Eagle's medium (DMEM) supplemented with 10% fetal bovine serum. Two days after confluence, 3T3-L1 cells were induced to differentiation using the standard adipogenic cocktail (0.5 mM IBMX, 1 μM dexamethasone and 10 μg/ml insulin) that was applied for 4 days and followed by 10 μg/ml insulin treatment for additional 4 days. The culture medium was changed every other day. The differentiated cells were maintained in normal serum containing DMEM. Mouse primary adipocytes were isolated from 10 to 12-week-old male C57BL/6J mice using a collagenase digestion protocol as described, briefly, white fat pads were removed, minced and digested using collagenase for 60-90 min at 37° C. in Krebs-Ringers phosphate HEPES buffer (KRPH) (15 mM HEPES, pH 7.4, 118 mM NaCl, 4.8 mM KCl, 1.2 mM MgSO4, 1.3 mM CaCl2, 1.2 mM KHPO3, 0.1% BSA). The stromal vascular fraction was separated from the adipocytes and cultured using DMEM and differentiated the same as 3T3-L1 adipocytes as described above. […] NBDG uptake was measured using a fluorescent microplate reader (Thermo Scientific Varioskan LUX Multimode Microplate Reader).

[3] = tested on: isolated pancreatic islet cells; assay: Insulin secretion from mouse isolated pancreatic islets; assay type: cell-based; settings: CYSTM1 1-1000 nM, 5.6 mM then 16.7 mM glucose, 45 min
Experimental: (§2) FIGS. 6A-6C show the change in insulin secretion from different pancreatic cells in a low (5.6 mM) and high (16.7 mM) glucose level treated by different concentrations of CYSTM1: FIG. 6A: MIN6 cells; FIG. 6B: β-TC-6 cells; FIG. 6C: mouse-isolated pancreatic islets (n=5-6 per cell type);
(§3) In this example, in vitro assays of insulin secretion in response to CYSTM1 treatment in low and high-glucose environments on the pancreatic cell lines (MIN6 and B-TC-6) and mouse isolated pancreatic islets were performed. Mouse insulinoma, MIN6 cells, were cultured in DMEM (Gibco) supplemented with 10% (v/v) FBS (Lonza), 100 U/mL penicillin and […], and 70 μM freshly added β-mercaptoethanol (Gibco) (37° C., 5% CO2). B-TC-6 cells were grown in RPMI 1640 medium (Gibco) containing 5.5 mM glucose and supplemented with 10% (v/v) FBS, 100 U/mL penicillin and […], and 2 mM L-glutamine. […] Following 45 min incubation of KRB solution, each well was removed and the insulin content of each sample was determined by a mouse insulin ELISA kit. The efficacy of CYSTM1 to stimulate insulin secretion was evaluated in each of the pancreatic cell lines: MIN6 cells (FIG. 6A), B-TC-6 cells (FIG. 6B), and isolated pancreatic islet cells (FIG. 6C).

[4] = tested on: high fat diet-induced obese (HFD) mice; assay: Chronic daily oral gavage of CYSTM1 in high-fat diet-induced obese mice; assay type: in vivo, mouse
Experimental: In this example, 8-week-old male C57BL/6J mice fed with a high-fat diet (HFD) were treated daily with an oral gavage of recombinant CYSTM1 protein (1 mg/kg), and the control group of mice were gavaged with saline daily. CYSTM1 treatment was carried out after 8 weeks of HFD feeding (FIG. 4A).

[5] = tested on: MIN6 pancreatic beta cell; assay: Insulin secretion in MIN6 cells with GLP-1R antagonist exendin (9-39); assay type: cell-based, mouse; settings: CYSTM1 10 nM, exendin (9-39) 10 nM
[6] = tested on: diet-induced obesity and diabetes mouse model; assay: Acute glucose tolerance test after i.p. injection or oral gavage of recombinant CYSTM1 in high-fat diet mice; assay type: in vivo; settings: 1 h before GTT, obese mice, vs PBS
Experimental: In this example, an acute intraperitoneal (i.p.) glucose tolerance test (GTT) was performed using different administration methods of delivering recombinant CYSTM1 proteins. 8-week-old male C57BL/6J mice fed a high-fat diet for 12 weeks (diet-induced obesity and diabetes mouse model) were treated with different concentrations of CYSTM1 through i.p. injection (FIG. 3A-3C) or oral administration (FIGS. 3D-3F) for 1 h following a GTT by intraperitoneal injections of […]. Circulating CYSTM1 and insulin levels were determined by enzyme-linked immunosorbent assay (ELISA) (ImmunoDiagnostics, Hong Kong), and the glucose level was determined by a glucometer (Roche Diabetes Care, Indianapolis, IN, USA). […] As human and mouse CYSTM1 share high identity (89.4%) and similarity (90.4%), and human CYSTM1 appears to also lower circulating glucose in the db/db mice (a genetic mouse model of obesity and diabetes), it could be expected that human CYSTM1 may also function similarly with respect to human circulating glucose in an obese, diabetic human subject.

[7] = tested on: MIN6 cells; assay: Insulin secretion from MIN6 cells at low and high glucose; assay type: cell-based, mouse; settings: CYSTM1 1-1000 nM, 5.6 mM or 16.7 mM glucose, 45 min
Experimental: as §2, §3

[8] = tested on: 3T3-L1 adipocytes; assay: 2-NBDG glucose uptake in 3T3-L1 adipocytes; assay type: cell-based; settings: 3T3-L1 adipocytes, CYSTM1 1-1000 nM, 1 h
Experimental: as §1

[9] = tested on: B-TC-6 cells; assay: Insulin secretion from B-TC-6 cells at low and high glucose; assay type: cell-based; settings: CYSTM1 1-1000 nM, 5.6 mM or 16.7 mM glucose, 45 min
Experimental: as §2, §3

[10] = tested on: db/db mice; assay: Acute glucose tolerance test after i.p. injection of human CYSTM1 in db/db mice; assay type: in vivo, mouse; settings: acute i.p. injection 1 mg/kg BW, vs PBS
[11] = i.p. injection of CYSTM1 (0.5 and 1 mg/kg BW)
[12] = oral gavage of CYSTM1 1 mg/kg BW

| Molecule | feeding blood glucose level ([1]; 1 mg/kg oral daily) | glucose regulation by IPGTT ([1]; day 15, 1 mg/kg oral daily) | glucose (2-NBDG) uptake [2] | insulin secretion [3] | feeding blood glucose level ([4]; 1 mg/kg oral gavage once daily, HFD mice, vs saline) | fasting insulin concentration ([4]; day 10, 1 mg/kg oral gavage once daily, HFD mice, vs saline) | glucose homeostasis by IPGTT ([4]; day 20, 1 mg/kg oral gavage once daily, vs control HFD-fed mice) | insulin secretion induced by CYSTM1 in presence of exendin (9-39) [5] | circulating insulin [6, 11] | glucose levels (GTT) [6, 11] | circulating insulin [6, 12] | glucose levels (GTT) [6, 12] | insulin secretion [7] | glucose (2-NBDG) uptake [8] | insulin secretion [9] | glucose levels (GTT) [10] |
| --- | --- | --- | --- | --- | --- | --- | --- | --- | --- | --- | --- | --- | --- | --- | --- | --- |
| cysteine rich transmembrane module containing 1 (protein, UniProt Q8K353 1-104, looked up, recombinant mouse CYSTM1 protein, 104 amino acid long glucoregulatory peptide) Cysteine-rich and …: MNPENPPPYPGPGPTAPYPPYPQQPMGPMGPMGAPPPQGYPYPPPQGYPYQGYPQYGWQGGPQEPPKTTVYVVEDQRRDDLGPSTCLTACWTALCCCCLWDMLT | significantly lower feeding blood glucose level | protects from STZ-induced glucose dysregulation | concentration-dependent increase | concentration-dependent increase in insulin secretion | significantly reduced feeding blood glucose level | decreased level of fasting insulin concentration | better glucose homeostasis | not affected by the presence of exendin (9-39) | increase circulating insulin | lower glucose levels | increase circulating insulin | lower glucose levels | concentration-dependent increase in insulin secretion | concentration-dependent increase | concentration-dependent increase in insulin secretion |  |
| cysteine rich transmembrane module containing 1 (protein, UniProt Q9H1C7 1-97, looked up, human CYSTM1, 97 amino acid long peptide) Cysteine-rich and …: MNQENPPPYPGPGPTAPYPPYPPQPMGPGPMGGPYPPPQGYPYQGYPQYGWQGGPQEPPKTTVYVVEDQRRDELGPSTCLTACWTALCCCCLWDMLT |  |  |  |  |  |  |  |  |  |  |  |  |  |  |  | lower glucose levels |
